{"source": "paper PMC4988437", "about": "(Channels, 2016)", "test_in_all_cases": "FRET or BRET", "key": {"CFP-Rem(1-285)": {"biological_target": "T1, CFP-Rem(1-285) (mouse, UniProt O35929 1-285)", "T1 sequence (looked up)": "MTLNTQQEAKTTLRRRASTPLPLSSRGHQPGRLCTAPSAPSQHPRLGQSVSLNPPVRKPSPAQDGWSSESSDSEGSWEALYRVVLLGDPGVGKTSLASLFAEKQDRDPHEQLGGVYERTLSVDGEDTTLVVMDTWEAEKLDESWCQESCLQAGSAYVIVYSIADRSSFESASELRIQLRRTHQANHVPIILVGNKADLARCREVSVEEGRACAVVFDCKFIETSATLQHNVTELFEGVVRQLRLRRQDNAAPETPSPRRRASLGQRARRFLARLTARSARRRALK"}, "CFP-Rem(224-297)": {"biological_target": "T2, CFP-Rem(224-297) (mouse, UniProt O35929 224-297)", "T2 sequence (looked up)": "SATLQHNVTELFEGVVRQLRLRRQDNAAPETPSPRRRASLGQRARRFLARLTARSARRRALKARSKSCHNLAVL"}, "CFP-Rem(1-275)": {"biological_target": "T3, CFP-Rem(1-275) (mouse, UniProt O35929 1-275)", "T3 sequence (looked up)": "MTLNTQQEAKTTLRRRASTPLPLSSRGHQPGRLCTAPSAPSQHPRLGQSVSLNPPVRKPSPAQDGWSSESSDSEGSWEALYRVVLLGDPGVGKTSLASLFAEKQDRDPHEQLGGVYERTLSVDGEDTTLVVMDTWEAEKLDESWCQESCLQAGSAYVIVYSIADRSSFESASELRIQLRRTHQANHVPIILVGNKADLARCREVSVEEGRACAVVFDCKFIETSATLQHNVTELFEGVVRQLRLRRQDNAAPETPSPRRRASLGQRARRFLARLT"}}, "data": [{"binder": "YFP-tagged alpha1C N-terminus (domain or fragment) not shown", "values": [{"measurement": "FRET efficiency", "setting": "CFP-Rem(1-285)", "result": 0.071}, {"measurement": "FRET efficiency", "setting": "CFP-Rem(224-297)", "result": 0.439}, {"measurement": "FRET efficiency", "setting": "CFP-Rem(1-275)", "result": 0.04}]}]}
